Laboratory results published in publication PMC3229523, “Identification of Lactoferricin B Intracellular Targets Using an Escherichia coli Proteome Chip” (PLoS ONE, 2011).
Ends that are not written are not given here. * marks the point of attachment. Biotin = O=C1N[C@H]2[C@H](CS[C@H]2CCCCC(=O)*)N1

Assays:
Test in all cases: peptide or protein array; E. coli proteome chip: purified His-tagged proteins printed in duplicate on Fullmoon slides, blocked with 1% BSA; 10 nM N-terminal biotinylated LfcinB with 1% BSA, room temperature, 1 h; detected with DyLight 649-labeled streptavidin, ratio to DyLight 549-labeled anti-His antibody; ProCAT normalisation, local cut-off; triplicate chips
Conditions in all cases: both partners purified
[1] = target: T1, AgaY (E. coli K-12, UniProt P0AB74 1-286)
T1 construct: AgaY, E. coli K-12
T1 sequence (P0AB74 whole entry): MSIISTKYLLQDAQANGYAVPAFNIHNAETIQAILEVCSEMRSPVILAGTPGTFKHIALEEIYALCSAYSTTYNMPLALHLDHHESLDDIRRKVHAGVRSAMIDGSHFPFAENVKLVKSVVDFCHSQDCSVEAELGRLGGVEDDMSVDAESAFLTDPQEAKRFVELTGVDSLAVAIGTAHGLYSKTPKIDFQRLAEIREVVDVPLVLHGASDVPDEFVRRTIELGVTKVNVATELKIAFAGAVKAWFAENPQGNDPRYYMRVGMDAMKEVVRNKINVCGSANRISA

[2] = target: T2, YdaU (E. coli K-12, UniProt P76065 1-285)
T2 construct: YdaU, E. coli K-12
T2 sequence (looked up): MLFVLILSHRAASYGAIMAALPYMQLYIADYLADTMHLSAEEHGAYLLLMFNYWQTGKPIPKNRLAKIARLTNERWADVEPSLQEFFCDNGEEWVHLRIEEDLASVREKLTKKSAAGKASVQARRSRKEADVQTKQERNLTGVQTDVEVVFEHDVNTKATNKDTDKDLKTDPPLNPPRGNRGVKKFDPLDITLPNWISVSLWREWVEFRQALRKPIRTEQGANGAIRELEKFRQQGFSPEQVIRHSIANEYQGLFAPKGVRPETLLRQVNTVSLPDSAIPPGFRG

[3] = target: T3, YjeJ (E. coli K-12, UniProt P39279 1-289)
T3 construct: YjeJ, E. coli K-12
T3 sequence (looked up): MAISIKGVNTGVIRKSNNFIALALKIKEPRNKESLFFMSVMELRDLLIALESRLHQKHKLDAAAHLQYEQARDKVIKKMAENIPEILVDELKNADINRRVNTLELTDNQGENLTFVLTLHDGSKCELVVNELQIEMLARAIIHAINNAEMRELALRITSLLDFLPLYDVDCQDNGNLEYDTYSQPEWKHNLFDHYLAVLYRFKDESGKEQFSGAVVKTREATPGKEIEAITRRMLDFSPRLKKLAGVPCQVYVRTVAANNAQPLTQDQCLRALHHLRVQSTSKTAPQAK

[4] = target: T4, YdhS (E. coli K-12, UniProt P77148 1-534)
T4 construct: YdhS, E. coli K-12
T4 sequence (looked up): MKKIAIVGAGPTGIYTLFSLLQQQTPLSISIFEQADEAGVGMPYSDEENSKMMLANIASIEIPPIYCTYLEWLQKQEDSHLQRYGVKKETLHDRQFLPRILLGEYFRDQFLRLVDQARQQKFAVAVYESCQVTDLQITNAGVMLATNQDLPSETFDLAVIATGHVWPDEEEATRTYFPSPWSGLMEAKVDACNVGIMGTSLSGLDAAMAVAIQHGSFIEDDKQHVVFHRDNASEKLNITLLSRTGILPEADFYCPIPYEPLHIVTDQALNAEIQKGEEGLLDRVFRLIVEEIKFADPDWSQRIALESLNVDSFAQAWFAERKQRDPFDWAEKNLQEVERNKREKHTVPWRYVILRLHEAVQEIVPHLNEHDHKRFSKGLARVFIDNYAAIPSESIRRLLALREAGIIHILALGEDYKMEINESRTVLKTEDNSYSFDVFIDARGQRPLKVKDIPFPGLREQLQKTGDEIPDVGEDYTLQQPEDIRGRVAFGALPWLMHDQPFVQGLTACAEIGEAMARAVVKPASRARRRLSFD

[5] = target: T5, YdcC (E. coli K-12, UniProt P28917 1-378)
T5 construct: YdcC, E. coli K-12
T5 sequence (looked up): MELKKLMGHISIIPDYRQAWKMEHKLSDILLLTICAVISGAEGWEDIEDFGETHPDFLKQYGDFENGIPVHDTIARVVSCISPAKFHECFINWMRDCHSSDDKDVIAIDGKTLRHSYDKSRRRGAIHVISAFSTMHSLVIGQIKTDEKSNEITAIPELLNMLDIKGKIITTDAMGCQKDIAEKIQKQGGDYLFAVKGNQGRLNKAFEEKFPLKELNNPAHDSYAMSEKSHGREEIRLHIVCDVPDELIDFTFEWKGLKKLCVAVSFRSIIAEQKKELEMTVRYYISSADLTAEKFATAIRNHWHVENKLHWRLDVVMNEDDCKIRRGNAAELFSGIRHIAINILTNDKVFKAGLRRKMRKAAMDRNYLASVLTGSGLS

[6] = target: T6, NrdB (E. coli K-12, UniProt P69924 1-376)
T6 construct: NrdB, E. coli K-12
T6 sequence (looked up): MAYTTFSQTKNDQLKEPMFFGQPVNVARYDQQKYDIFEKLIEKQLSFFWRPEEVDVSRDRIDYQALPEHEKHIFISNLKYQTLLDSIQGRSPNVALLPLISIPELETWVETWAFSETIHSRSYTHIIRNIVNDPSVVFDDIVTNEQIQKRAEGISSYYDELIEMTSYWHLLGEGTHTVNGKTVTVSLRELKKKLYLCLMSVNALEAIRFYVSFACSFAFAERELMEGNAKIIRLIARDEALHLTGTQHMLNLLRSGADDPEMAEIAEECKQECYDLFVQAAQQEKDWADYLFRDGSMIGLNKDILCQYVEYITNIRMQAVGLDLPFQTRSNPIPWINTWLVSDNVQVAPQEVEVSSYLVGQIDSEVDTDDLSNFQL

Measured: binding result

B1: N-terminal biotinylated Lactoferricin B (peptide, UniProt P24627 36-60, looked up)
peptide: Biotin-FKCRRWQWRMKKLGAPSITCVRRAF
modifications: ends and bridges not checked
notes: lactoferricin B (LfcinB), cationic antimicrobial peptide of 25 amino acids; also called biotinylated LfcinB; biotin-labeled LfcinB; source: bought: Kelowna Inc
binds: all assays above
